Assay results reported in paper doi:10.1101/2020.05.01.070730 (bioRxiv, 2020).

Target: T1, MutS E. coli (Escherichia coli, UniProt P23909 1-853)
T1 sequence: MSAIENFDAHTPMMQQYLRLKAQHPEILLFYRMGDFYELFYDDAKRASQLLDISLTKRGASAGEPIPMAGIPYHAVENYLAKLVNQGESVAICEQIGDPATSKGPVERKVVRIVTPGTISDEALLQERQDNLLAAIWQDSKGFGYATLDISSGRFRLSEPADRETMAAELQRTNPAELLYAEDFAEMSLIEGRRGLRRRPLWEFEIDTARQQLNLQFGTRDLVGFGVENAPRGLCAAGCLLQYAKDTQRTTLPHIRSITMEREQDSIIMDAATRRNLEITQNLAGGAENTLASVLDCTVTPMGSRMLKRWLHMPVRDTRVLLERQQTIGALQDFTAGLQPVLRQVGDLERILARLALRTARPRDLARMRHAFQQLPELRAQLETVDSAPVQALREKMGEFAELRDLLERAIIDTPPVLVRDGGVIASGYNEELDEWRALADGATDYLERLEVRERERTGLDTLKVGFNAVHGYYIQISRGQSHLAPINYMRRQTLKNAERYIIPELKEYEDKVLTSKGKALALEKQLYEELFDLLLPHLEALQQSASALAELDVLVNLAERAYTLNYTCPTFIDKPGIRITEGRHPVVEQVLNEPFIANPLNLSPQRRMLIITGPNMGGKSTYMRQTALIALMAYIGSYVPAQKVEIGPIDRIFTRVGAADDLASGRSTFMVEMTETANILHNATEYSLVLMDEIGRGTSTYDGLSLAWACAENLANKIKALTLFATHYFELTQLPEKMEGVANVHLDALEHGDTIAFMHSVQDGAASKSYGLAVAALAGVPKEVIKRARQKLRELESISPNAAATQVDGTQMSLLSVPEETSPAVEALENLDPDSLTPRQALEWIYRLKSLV
Experiment: native PAGE shift

B1: GT-pDNA (GT 8 nt from 3'-OH) (dsDNA)
DNA 1: ATGTGAATCAGTATGGTTGCTATCTGC
DNA 2: ATTTCCTTCAGCAGATAGTAACCATACTGATTCACAT
binding result: binds
